Test results taken from paper PMC9352680, “A comprehensive thermodynamic model for RNA binding by the Saccharomyces cerevisiae Pumilio protein PUF4”.
Positions count from the first letter of the chain named. Names may count otherwise.

T1: PUF4 RNA-binding domain (Saccharomyces cerevisiae, UniProt P25339 537-888)
T1 sequence: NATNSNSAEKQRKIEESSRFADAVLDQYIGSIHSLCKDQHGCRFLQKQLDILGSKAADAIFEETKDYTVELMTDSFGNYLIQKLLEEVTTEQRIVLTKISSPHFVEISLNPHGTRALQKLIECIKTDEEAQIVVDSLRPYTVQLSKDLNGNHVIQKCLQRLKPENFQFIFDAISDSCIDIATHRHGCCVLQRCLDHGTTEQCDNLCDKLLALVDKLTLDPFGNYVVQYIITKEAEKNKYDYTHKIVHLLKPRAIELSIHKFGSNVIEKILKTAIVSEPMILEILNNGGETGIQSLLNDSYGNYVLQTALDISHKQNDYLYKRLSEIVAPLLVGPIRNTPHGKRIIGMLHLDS

B1: Ic_S4_P4E.1_K4.1_C4.1_H4.1_A4.1_[T5A]_[A6T]_[T7C]_F4.1_[T8A]_[A9G]_T4.1 (ssRNA)
RNA: UUUGACAACUGAUCGUUCUUUCUUGUAAUCAGUUCUUUCUCGAUCAGUUGUCUUU
B2: Ic_S4_P4E.1_K4.1_C4.1_H4.1_A4.1_[T5A]_[T7A]_F4.1_[T8C]_[A9T]_T4.1 (ssRNA)
RNA: B1 RNA with U29A, C30A, A31C, G32U
B3: Ic_S4_P4E.1_K4.1_C4.1_H4.1_A4.1_[T5A]_[A6T]_[T7A]_F4.1_[T8A]_[A9C]_T4.1 (ssRNA)
RNA: B1 RNA with C30A, G32C
B4: Ic_S4_P4E.1_K4.1_C4.1_H4.1_A4.1_[T5A]_[T7A]_F4.1_[A9T]_T4.1 (ssRNA)
RNA: B1 RNA with U29A, C30A, A31U, G32U
B5: Ic_S4_P4E.1_K4.1_C4.1_H4.1_A4.1_[A6G]_F4.1_[T8G]_[A9G]_T4.1 (ssRNA)
RNA: B1 RNA with A28U, U29G, C30U, A31G
B6: Ic_S4_P4E.1_K4.1_C4.1_H4.1_A4.1_[T5A]_[A6T]_[T7C]_F4.1_[T8A]_[A9C]_T4.1 (ssRNA)
RNA: B1 RNA with G32C
B7: Ic_S4_P4E.1_K4.1_C4.1_H4.1_A4.1_[T5A]_[A6T]_[T7A]_F4.1_[A9C]_T4.1 (ssRNA)
RNA: B1 RNA with C30A, A31U, G32C
B8: Ic_S4_P4E.1_K4.1_C4.1_H4.1_A4.1_[T5A]_[T7C]_F4.1_[T8C]_[A9C]_T4.1 (ssRNA)
RNA: B1 RNA with U29A, A31C, G32C
B9: Ic_S4_P4E.1_K4.1_C4.1_H4.1_A4.1_[A6G]_F4.1_[T8C]_[A9C]_T4.1 (ssRNA)
RNA: B1 RNA with A28U, U29G, C30U, A31C, G32C
B10: Ic_S4_P4E.1_K4.1_C4.1_H4.1_A4.1_[A6G]_[T7G]_F4.1_[T8C]_[A9C]_T4.1 (ssRNA)
RNA: B1 RNA with A28U, U29G, C30G, A31C, G32C
B11: Ic_S4_P4E.1_K4.1_C4.1_H4.1_A4.1_[A6G]_[T7C]_F4.1_[T8A]_[A9T]_T4.1 (ssRNA)
RNA: B1 RNA with A28U, U29G, G32U
B12: Ic_S4_P4E.1_K4.1_C4.1_H4.1_A4.1_[T5A]_[A6T]_F4.1_[T8A]_[A9G]_T4.1 (ssRNA)
RNA: B1 RNA with C30U
B13: Ic_S4_P4E.1_K4.1_C4.1_H4.1_A4.1_[T5A]_[T7A]_F4.1_[T8A]_T4.1 (ssRNA)
RNA: B1 RNA with U29A, C30A, G32A
B14: Ic_S4_P4E.1_K4.1_C4.1_H4.1_A4.1_[T5A]_[A6T]_F4.1_[T8C]_T4.1 (ssRNA)
RNA: B1 RNA with C30U, A31C, G32A
B15: Ic_S4_P4E.1_K4.1_C4.1_H4.1_A4.1_[A6C]_[T7C]_F4.1_[T8A]_T4.1 (ssRNA)
RNA: B1 RNA with A28U, U29C, G32A
B16: Ic_S4_P4E.1_K4.1_C4.1_H4.1_A4.1_[A6G]_F4.1_[T8C]_[A9T]_T4.1 (ssRNA)
RNA: B1 RNA with A28U, U29G, C30U, A31C, G32U
B17: Ic_S4_P4E.1_K4.1_C4.1_H4.1_A4.1_[A6G]_[T7C]_F4.1_[T8G]_[A9C]_T4.1 (ssRNA)
RNA: B1 RNA with A28U, U29G, A31G, G32C
B18: Ic_S4_P4E.1_K4.1_C4.1_H4.1_A4.1_[T5A]_[A6T]_[T7A]_F4.1_[T8C]_T4.1 (ssRNA)
RNA: B1 RNA with C30A, A31C, G32A
B19: Ic_S4_P4E.1_K4.1_C4.1_H4.1_A4.1_[A6G]_F4.1_[T8A]_[A9G]_T4.1 (ssRNA)
RNA: B1 RNA with A28U, U29G, C30U
B20: Ic_S4_P4E.1_K4.1_C4.1_H4.1_A4.1_[A6G]_F4.1_[T8A]_[A9C]_T4.1 (ssRNA)
RNA: B1 RNA with A28U, U29G, C30U, G32C
B21: Ic_S4_P4E.1_K4.1_C4.1_H4.1_A4.1_[T5A]_[A6T]_[T7A]_F4.1_T4.1 (ssRNA)
RNA: B1 RNA with C30A, A31U, G32A
B22: Ic_S4_P4E.1_K4.1_C4.1_H4.1_A4.1_[T5A]_F4.1_[T8A]_[A9G]_T4.1 (ssRNA)
RNA: B1 RNA with U29A, C30U
B23: Ic_S4_P4E.1_K4.1_C4.1_H4.1_A4.1_[T5A]_[T7C]_F4.1_[T8C]_[A9T]_T4.1 (ssRNA)
RNA: B1 RNA with U29A, A31C, G32U
B24: Ic_S4_P4E.1_K4.1_C4.1_H4.1_A4.1_[A6C]_[T7C]_F4.1_[T8C]_[A9G]_T4.1 (ssRNA)
RNA: B1 RNA with A28U, U29C, A31C
B25: Ic_S4_P4E.1_K4.1_C4.1_H4.1_A4.1_[A6G]_[T7G]_F4.1_[T8C]_[A9T]_T4.1 (ssRNA)
RNA: B1 RNA with A28U, U29G, C30G, A31C, G32U
B26: Ic_S4_P4E.1_K4.1_C4.1_H4.1_A4.1_[A6C]_[T7G]_F4.1_[T8A]_[A9C]_T4.1 (ssRNA)
RNA: B1 RNA with A28U, U29C, C30G, G32C

Target: T1, PUF4 RNA-binding domain
Assay: Mg; RNA-MaP; 20 mM Na-HEPES pH 7.4, 30 mM KOAc, 0.75 mM MgCl2, 0.1% Tween-20, 5% glycerol, 0.1 mg/mL BSA, 2 mM DTT; 25 C; 0.0125-409.6 nM protein
Settings: tags: N-His6-TEV cleaved; C-SNAP kept, Cy3B-labelled; label: tethered on chip by stalled RNA polymerase

Binder	Kd
UCUCUUUGUAUCUAAUCUCUU (ssRNA) [Ib_S1_P4E.1_K4.1_C4.1_H4.1_A4.1_[A6C]_F4.1_[T8A]_T4.1]	49.3 nM
UCUCUUUGUAUACGAUCUCUU (ssRNA) [Ic_S1_P4E.1_K4.1_C4.1_H4.1_A4.1_[T7C]_F4.1_[T8G]_T4.1]	42.1 nM
UCUCUUUGUAUACCAUCUCUU (ssRNA) [Ib_S1_P4E.1_K4.1_C4.1_H4.1_A4.1_[T7C]_F4.1_[T8C]_T4.1]	13.1 nM
B1	1080 nM
B2	258 nM
B3	314 nM
B4	65 nM
B5	180 nM
B6	1050 nM
B7	46.2 nM
B8	455 nM
B9	36.4 nM
B10	1940 nM
B11	108 nM
B12	467 nM
B13	202 nM
B14	205 nM
B15	577 nM
B16	74.2 nM
B17	995 nM
B18	555 nM
B19	186 nM
B20	85 nM
B21	1.95 nM
B22	78.7 nM
B23	175 nM
B24	449 nM
B25	624 nM
B26	> 2300 nM
